# Results reported in a protein production outcome set (Wang et al. 2014).
# Assay: label from the status in PepcDB records
row,Sequence,protein production
1,MRAAVRTRIVATYLAVAALWGSTWMAIRIGLEDLPPLRFAGVRMAIAALVLAPFALRGGAWREVVGPARAQLALVAVLQIALPYGLMFVAQQWVPSGLAAVLFASFPVWIALLARALVPGETLTPARVASALLGIAGVAVLQLPHLGDLEGSGRLLLGGALVVLSSMIVALANVLVRRHLAAVSPLAMTAGQTAVGAVLLLAAAALLEQGRPAAFTASAVAALAWLAVFGTALTYVGLYWLVPRVPMAAIGALPLLDTSVAVTLGALVLHEPVGWNLALGGGMVLAAAALTIPRRR,failed
2,MRACAPIFRLLGGGVEHLGKSGRPGSGGRWWPLCGWLALAALVPAVQAEEGEPAPVEASAAARLVDVNEYFVRGNTVLDARAIEEAVYPFLGPQKALADIEGARDALQKVYQERGYQSVFVELPEQKVEDGIVYLQVSETKVGRVRVVGAKHYSPVEIRDQVPALKEGEVPDFATVQSQLAGLNRGAGRQVMPLVREGQRPGTMDVDLQVEDQNPWHASVGLNNDYSADTEKLRTVVNVGYDNLWQLGHSISLTYFTAPQDTDNAKVWSGSYTAPLSDRWALQFSGYQSDSNIATIGGSNVLGKGHSYGVSAIYTLPAAGNWANSLSVGVDFKDFEEEMRFGRSSDQIPLKYAPMTFGYNGYRYSEKAQLGLGLNLIVGTRRFFGYGSDAEEFHYKRDEASASFSVLKGDLNFTYTFANDWQSASKAAFQLASGPLVSNEQYSAGGATSVRGYLAAERTGDEGYLFSQELRTPSLAKFLGSYVQEWRFYAFAEGAHLSLHDPLPEQEDEYSLASVGLGTRASLSKWLSGSLDWGYPLKDGPNTQKYDPRLHFSVQATF,failed
3,MRADRSMLGPSLHRDQIMAMNRVQFQAGLSLPAFLKRYGNAQQCEQALEISRWPQGFVCPHCAATAHSRFQRHGTTYWQCTACYRQTSLRSGTVMDNSKLPLRTWLLGMYLLGQSKTNLSALELMRHLGVSYPTAWPMKHKLMQAMTQREANRKLGGIVQLDDAYLGGERNGGKAGRGSENKRLFVIAVETTEDGRPLRAVMDPVPGFTKAALSEWIGQRLHPGADVYSDGLGAFRALEAEHAHTVIEGSGRSRCEAENARWVNVVLSNLKRSLDGAYHAFKYAQRYLAETMWRFNRRFDLTRLVPSLLAAAAASKPWSERALRDVTMFTAESAC,failed
4,MRALIRYEDVPSKLWTLPKMTDFWGIGKRTEKRLNKLGISSIKELTNADPLLLKQKLGTIGLQHFFHANGIDESNVRLEHHHHHH,failed
5,MRALIVSNPNSTTQSAEMFRHVIPTLRAVPGLELRAQMTHYAGHARHMCENLTVEDYDVVIAVGGDGTVNEVINGLLGDLPSAPPALAVIPTGSANVFARALGLPADPAQAAEVLADALHKGSTRRINLGKWGS,failed
6,MRAMVSRLNSAVSRLFLFAFVAVMPTLVQAQSVNEGQSVRALTTDSSGALLVLRQSGLFALDSQNTTEIPLPPSDSGAQPRSMAKGGDESLYLAGPGLGIWRYDEASKRWQSLNDTLPDLGVTAIAAHATQPDTLYAYLGDGGMFRSRDDGAEWVKVDNGPREPVQAFLHSDMPGSMESGWLFAGTTRGVARSMDCFCFWGDAGELRGTVSAIDYDPWAPENVYAVIEGELHRSSDGGETWAGLEIPQAVTALTFSPTERLVVGTENGELLSQNASGEWVPVYE,failed
7,MRATACWFVSGLVTFKSENKTRRLVSATHNSRPSMSRVRSWILVVGVLVGAVGGCAEPQDGRGPATADSIAATAPGTDVVGAPLDASGDTLRMGRPTPVTTRPGYDNQPAFLPDGSGLVWTAIHDGQADVYRKIEDEGGPAPVTDTPESEFSPTPRPGGALTLVRVEADGRQRLWRYRADGTPDAPVLPDADSVGYHAWLDSSRVALFVLGAPPTLHVANVKSGTDTVVARRIGRSLQSVPGRADVSFVQVGPDSSVAIHRLDGASLTTRRLTEAPTNAPTGDHAWTPGGHLLMTTEDSLVAWRRGRADWRPVAALDTMDVSRLAVSPSGDRLAMVAAE,failed
8,MRAVIPYKKAGAKSRLSPVLSLQEREEFVELMLNQVISSLKGAGIEQVDILSPSVYGLEEMTEARVLLDEKDLNEALNRYLKEAEEPVLIVMADLPLLSPEHIKEISSTEKDVCIVPGKGGGTNALFIKNPSKYRVKYYGSSFLTHCSIATDSGQDFEIYDSFMAGTDIDEPEDLVELLIHGKGAAKDYIESKFRLEVKKG,failed
9,MRDATYPQLWAAVRAARKAGRTLESVKPAADQFQVKHNGDIVTEADRTVEETILAELSGQFPVHTVVSEESAPEFTTKPRWIIDPIDGTTNFLNGIPHYSISIAFEGAGEPDVGIVYHVPSETMYTAIEGGGAYANGQPLSLSATTELSEALIVTGFDTASMQAQEYDHFRTILNVTQGVRRFGSAAGELAMVAAGQFDAFFERQLSVWDTAAGVKIVEEAGGEVTRIKALDGKNSEMVLASNEAIHQDLVALVSAGTVPKMDGQ,failed
10,MRDAYLMMVLMDALKEIFDLKEILKSPIRNKKVILFVSLVFILSLVLLYILVVNIKYFSYLGDIIFQNFQKHVENLKITLNEDNLHIILAIWKNNLTVCILNYILGIFSLFVIAVNSYILSYVLYKFGAESFIYLVLPHGIIEIPALILSASGGVLFNMGLVNFLINIKFGTKREVLYYIKESLKLLILSIILFIVAGIVEGTITFKIAKIMFS,failed
11,MRDLDREETYLVDRTGLALELRDLVGTGPVPGEAYPGPHAALGYGEGQFAALLSGLPDWGEEGTLFLLEGGYDLGEAAGMALLAETGRARVVRVGFRPGVEVHIPPSPLAPYRYLRFLLLATGREEVLRSVDEALLEERRRLGPEVPVEENPAKFLAYTLLERLPLFYSPLFRPLEGAVQTLFARVAKSLSLTPPPSALEFFLVGLEARHEQGDPLAAVLLGPGEEAALAKEILESRVDALAEVPATGANRLAQVMALWYRMAWTAYYLALLYGVDPGDHGLLERLREVT,not failed
12,MRDLLNDLSEGLSHPDPILRAQIQMQKPLPKRFYKDVTVADVEEGGFTILLDGKPLRTPAKKPLVAPSRALADLLRDEWDAQKEVVNPVVMPVSRHVNTAIDGIASDTQAVFEDILRFSSSDLLCYRAGDPEALVARQTDYWDPVLDWATNVLGARFILVEGVMHRDQPREAIAAFAVTLKKYDTPIALAALHTMTSLTGSAILALALAEGELTLEEAWALAHLDEDWTAEQWGEDEEALERRAVRLIDMRAALNVLESLKSASLEHHHHHH,failed
13,MRDSFGDWAEKFLKSKEADGVSVSQLNSYKNYCRNHLSPLYMKSLSEILPADIQSIINETKLAKNTLKAIRNTASQIFRLAIENRAIDFNPADYVRIPKIALEHHHHHH,not failed
14,MREGLRVLNSCNKVRGIFTLTQKTIKTFCFILAILVLIIFAVVFHNHSLEIIDYIDDLGWLAPVLFLITYCLATLLLLPTMVLTLAGGAVFGPVFGTLLNLLGATSGAALAFLITRHLVYDWFSTKKGEKLNKLIAGVDEKGWVFVAFLRLFPIVPFNLVNYGLGVTGISFRLYLLTTFIFLIPAEIIYTYFGYVGMDALTRPGHLYRNGGIFLTGLAIFFLLVIRIMKKR,failed
15,MREIPLVSVALATYNGERYLRRQLDSVLAQTYRNIEIVVSDDCSRDGTVAILEEYRRAHGITFRVNERNLGFVRNFERALAGCRGEFIALSDQDDIWLPEKIETLVREIGPHSLIYTDALLIDGDDQPLPGSLVEVSGVRPVSGTCFEYFVCNNCVTGCTAMLRRDLLATALPIPEAETYHDWWLAVAASRRNGVVYHAAKLTEYRQHAHNYTGANVRAGLPARIAAHLMGKTAAEKRGYYELLANRARRYRAMADRLNLTPAERSFLEEIGEYAESLLSGGNRMKTFALALKYRETLFPAAGRWEKLLFVFSKLIAARAILEHHHHHH,not failed
16,MRELLVFLHILSAATWIGAALWVPGDVKRTVALGRPFVEQLAARARPALKLDLYAGFAVLVTGVLLIGVDGGHPRTGILVGFAATLARLLVVGFASMPAWRRVEGAVASGDLAAATAPARRLAMLGGIGHALWAIALAGMVF,failed
17,MRELNRLSEEITHILAAGEVVERPASCLKEVIENSIDAGASLIDIKLEKGGIKKIEVYDNGKGIHSDDIEYVFERHTTSKIKSVDDIFKITTMGFRGEALCAISSVSKVTLISRHYEQEQGCKVEVEGGKVLSKTIYPFEKGTRITIEDLFYNTPARLKFLKSPSAEQKYCIEVVEKIAICYPEISFRMQVDNKRQLFTPGDSKVESAIASVFGSEILKNLIDFSHQEEGLKVWGFFVNPVLSKSTRSGYHFYVNRRFIRSKLLSTCIDEAFKNSILTGRFPIVFLFIEINPIDIDVNVHPAKLEIKFKDERYVYNTVYKTVSSTLQSEKMIPKPTLDNLYLPQSVQDVKMVRNLWSYTQEQQSKEKAFQEDFNEFLKIEEQLDFSKVEVGKESKDVITVFSEEFNVETYKIVGYAFDTYIIVQKEDSLYLIDQHAVHERRLFELLKEEIFRNKIQRQILLSPIVIELPISQKEFALENVHIFEKLGFEIDDFGKNEIVVRTYPLLFEGAVDKFFILDIIEMIYNESVEKGITHFSEELLKKIACRAAVKGNMNISDLEKEEIVKLVLVEKKIFNCPHGRPVVIEIQKREIEKMFKRIV,failed
18,MRERTEARRRRIEEVLRRRQPDLTVLLENVHKPHNLSAILRTCDAVGVLEAHAVNPTGGVPTFNETSGGSHKWVYLRVHPDLHEAFRFLKERGFTVYATALREDARDFREVDYTKPTAVLFGAEKWGVSEEALALADGAIKIPMLGMVQSLNVSVAAAVILFEAQRQRLKAGLYDRPRLDPELYQKVLADWLRK,not failed
19,MREVNEGASAYPGQRATGESIERGGGGLSVSDLLAKVMTAAAPQPTGSGTESGPGAGPTAGPSLDVDGLAVAVAATAGRYLPGGHLSPDSDFFDAGGTSVHAVELVAELERELGMEIALDDVFADARPRTLARRWLSAGGAPAAHSATPATPEPTAAGVAATGVTAIGATAAGAAVAGATAAGVAATPGLLPLSAAGTRPAPAPSGLPVPSPRTPPAVAATPPPGSGDAPYSTARREDLDQILADLALADRLPWTGAPEPLPPRRILLTGATGFLGSHMLLDLLRHSDAHVYCLVRAADEEAATARLGQALKGYELPWSSEVRRRVTVLPGDIRHPRLGLSDDLWNTLAHELDSVVGVAAAVDFLRGYPSLRQSNVLGALTLAELAATGRPKPLHHISSIAVFNEVGITAMGEDDPLARVDRLVAGYDQTKWTAEVALRRARDHGLLVTAMRPGGIGGHTRTGAYNPQDLSSGLISAFGRFRTVPAFRYLNAAPVDWVSRVAVGVICEPDAWGYDYNLTGVPNTLDDVVQDMALGGMHVRVQDWDEWRTDALARLEADPVPELAFLTRVLRSPTALKLCEATLKGPAAHDDRTAALVEALGLGPAARYDAQAQLRTFERLARDGLARLPHKDDQPYLWFSERTEGGVGPVGAPADTPCSMALTLSIASMYQLVKERRVDVSGELVCAAVHPEPLTVERGDVWIRPEEGIPEQHGMRHQLLRYRLELRDTDGGHWWLEGHKYARARRDVWRQTRALTVEIGRAGEPARLTGEVVVPADSYVRDQIDGIKVDPRLTSQEKRAAKLTWLAWFGLEVGRGLLGPFARVAADLLDLRRNPTLTERNR,failed
20,MREVSLRIDRYLVNTRITPNQLTYLMTVCGVLAAPALLVPGIWGAVLGVVAVQLYLLLDCVDGEIARWRKQYSLGGVYLDRVGAYLTDAAVLVGLGLRAADIWGTGRIDWLWAFLGTLAALGAILIKAETDLVGVARHQNGMPPVKEAASEIRSSGMALARRAAGALKFHRLILGIEATLLILVLAIVDQARGDLFFTRLGTAVLAGIALLQTLLHLVSILASSRLK,failed
21,MREYNNPSDFKSFHDFVASYMKTYSRRLEIGTFRHHKSCMRKFKEYCEGLQFHELTEDFLRDYLIYMKKTLCNADSTAQRNLSTIKIYVSAAIKKGYMENDPFKDFGVKRLEHHHHHH,not failed
